Source: US12043852

Biological target: omega-dCas9 clone 4 (evolved SpCas9) D10A,H840A,E1219V; residues I122 and D182 also mutated, substitutions not stated (Streptococcus pyogenes) (UniProt Q99ZW2)
Assay: cell_activity
Conditions: E. coli activation

GGAGCCCACCGAGUACCUGG / GGAGCCCACCGAGTACCTGGAGG / CCTCCAGGTACTCGGTGGGCTCC [Doench 2 sgRNA (spacer) ; Doench 2 target, AGG PAM]
activity (luciferase activity) (PAM AGG): 238

GGAGCCCACCGAGUACCUGG / GGAGCCCACCGAGTACCTGGGAG / CTCCCAGGTACTCGGTGGGCTCC [Doench 2 sgRNA (spacer) ; Doench 2 target, GAG PAM]
activity (luciferase activity) (PAM GAG): 186

GGAGCCCACCGAGUACCUGG / GGAGCCCACCGAGTACCTGGGTG / CACCCAGGTACTCGGTGGGCTCC [Doench 2 sgRNA (spacer) ; Doench 2 target, GTG PAM]
activity (luciferase activity) (PAM GTG): 120
